Laboratory results reported in patent US20140087401.

Test system: purified spectrin

calpain (added in the in-tube reaction)
spectrin cleavage, gel stained with Coomassie's blue: Purified spectrins undergo calpain-mediated dynamic cleavage in a test tube due to ambient PAV impact
